Earlier results, collected in US20220323445A1, “REDUCING IMMUNOGENICITY TO PEGLOTICASE” (Horizon Therapeutics Ireland DAC, priority 2020, published 2022).
Values joined by “and” are separate entries in the source; they are usually repeats but may differ in a detail not shown here. Equal values may be shown once.

Experiments:
serum uric acid (sUA) = settings: cited from earlier work
plasma urate = settings: doses of 4 to 12 mg; within 24 to 72 hours; from 11.1±0.6 mg/dL; cited from earlier work

B1: pegloticase (protein)
chain: TYKKNDEVEFVRTGYGKDMIKVLHIQRDGKYHSIKEVATTVQLTLSSKKDYLHGDNSDVIPTDTIKNTVNVLAKFKGIKSIETFAVTICEHFLSSFKHVIRAQVYVEEVPWKRFEKNGVKHVHAFIYTPTGTHFCEVEQIRNGPPVIHSGIKDLKVLKTTQSGFEGFIKDQFTTLPEVKDRCFATQVYCKWRYHQGRDVDFEATWDTVRSIVLQKFAGPYDKGEYSPSVQKTLYDIQVLTLGQVPEIEDMEISLPNIHYLNIDMSKMGLINKEEVLLPLDNPYGKITGTVKRKLSSRL
modifications: monomethoxy PEG conjugated; Krystexxa Sequence
notes: covalent conjugate of uricase produced by a genetically modified strain of Escherichia coli and monomethoxypoly (ethylene glycol)
Q: Which “response rate (proportion of responders) during Month 6 in phase 3 studies” value (serum uric acid (sUA); pegloticase 8 mg every 2 weeks, without MTX) does the source give for B1 here?
A: 43% and 43.5%

Q: And the “proportion of patients maintaining therapeutic response at 6 months, previously reported” value (serum uric acid (sUA); pegloticase alone)?
A: 42%

Q: What about the “plasma urate concentration (pUAc) after dosing, mean±SD” value (plasma urate) of the same molecule?
A: 1.0±0.5 mg/dL
